Holding throughout (format): cell-based, human
Assay [1] concerns autologous lymphocytes. In words: Cytokines in coculture of pretreated DC with autologous lymphocytes (ELISA). As to conditions: for IFN-g concentration in coculture supernatant / IL-4 concentration in coculture supernatant: DerP1 pulsed DC, day 3 of coculture. The protocol:
(§1) On day 5 of the culture, DC were pulsed with affinity purified house dust mite allergen adjusted to a concentration of 100 ng/ml of DerP1 or with PBS as control. […] The respective optimal concentrations were experimentally determined using the highest expression of stimulatory cell surface molecules as read-out system. The substances were incubated on the cells for 48 hours.
(§2) Cytokine concentrations were determined in DC culture supernatant collected on day 7 (TNF-α, IL-10, IL-12) and in the supernatant of the coculture of DC and autologous lymphocytes collected on day 10 (IFN-γ, IL-4). Duo-Set ELISA kits for the detection of IL-12p70, IL-10, TNF, IFN-γ, IL-4 and IL-5 were purchased (R&D Systems, Wiesbaden, Germany) and performed according to the manufacturers instructions.
(§3) A portion of DC was used for coculture experiments with autologous lymphocytes from day 7 to day 13. To remove free stimulants, DC were harvested and washed twice. The cells were titrated in fresh medium in fresh round-bottom microtiterplates. 1×10^5 vital cryopreserved autologous lymphocytes were added at ratios of DC to lymphocytes from 1:3 to 1:2187 in a final volume of 200 μl in serum-free XVIVO-15. No further stimulants were given.
(ELISA stands for enzyme-linked immunosorbent assay.)

The test system of assay [2] is autologous lymphocytes. Nature of the assay: Proliferation assay (3H-thymidine) in coculture of DC and autologous lymphocytes. As to conditions: DC of allergics, allergen pulsed, 3H-thymidine day 12 for 18 hours. The protocol: as §3
The coculture was pulsed with 5 μCi/ml ^3H-thymidine (Amersham Buchler, Braunschweig, Germany) on day 12. After 18 hours, the cells were harvested on filtermats (Canberra-Packard, Dreieich, Germany). After drying, 20 μl of liquid scintillator (Can berra-Packard) were added and the plates were sealed. Counts per minute were determined on a Topcount Microplate Scintillation Counter (Can berra-Packard).

Assay [3] concerns monocyte derived DC. Nature of the assay: Cytokines in DC culture supernatant (ELISA). As to conditions: day 7 of culture. The protocol: (§4) Monocyte derived DC were generated as previously described (Weigt et al. Immunobiol. 207, 223-233 (2003). Briefly, blood was centrifuged to remove platelets, diluted and layered over Ficoll-Paque (Amersham Pharmacia, Uppsala, Sweden). After density gradient centrifugation, PBMC were collected, and monocytes were enriched using the MACS system and anti-CD14 beads (Miltenyi Biotec, Bergisch Gladbach, Germany). The CD14 positive fraction (monocytes) was cultured in the serum-free medium X-VIVO 15 supplemented with 100 U/ml penicillin and […] streptomycin (all BioWhittaker, Verviers, Belgium). The CD14 negative fraction containing the lymphocytes was cryopreserved in 90% FCS (GIBCO, Eggenstein-Leopoldhafen, Germany) and 10% DMSO (SIGMA, Taufkirchen, Germany). On day 1 and day 5 after isolation, 800 U/m of recombinant GM-CSF and 500 U/ml of recombinant IL-4 (Strathmann Biotec, Hamburg, Germany) were added to the monocyte culture to induce DC.
as §1, §2

Assay [4] has as its system monocyte derived DC. Nature of the assay: Flow cytometric analysis of DC surface molecules. The protocol: as §4, §1
For immunophenotyping, an aliquot of DC was harvested after 7 days of culture and washed in PBS supplemented with 0.5% FCS and 10 mM NaN3 (SIGMA, Taufkirchen, Germany). After 30-minute-incubation at 4° C. with one of the following combination of labeled murine mAbs (isotype control FITC/isotype control PE, anti-CD83 FITC, anti-CD86 FITC/anti-CD40 PE, anti-CD 80 FITC/anti-HLA-DR PE, anti-CD1a FITC/anti-CD14 PE (all BD Biosciences, Heidelberg, Germany)) cells were washed and analysed on a EPICS XL-MCL (Beckmann Coulter, Krefeld, Germany) flow cytometer. Data were processed with the Expo 32 cytometer software (Beckmann Coulter). The expression of the cell surface molecules was shown in 1 parameter Histograms (FIG. 2) or evaluated using the median of fluorescence intensity (MFI) after subtraction of the values of the isotype control (Tab. 1).
Background: Flow cytometry measures light scatter and fluorescence of single cells or particles in a stream.

The mark [5] stands for this setting: allergic donors, DC:lymphocytes 1:3.
Where [6] appears, read: allergic donors, pretreated DC:lymphocytes 1:3, mean±SEM of 6 experiments.
The mark [7] stands for this setting: DC of allergics, 48 h treatment, DerP1 100 ng/ml, MALP-2 100 pg/ml, IFN-g 5000 U/ml, mean±SEM of 6 experiments.

B1: DerP1: affinity purified major allergen of the house-dust mite Dermatophagoides pteronyssinus (protein, UniProt P08176 99-320, looked up)
Peptidase 1: TNACSINGNAPAEIDLRQMRTVTPIRMQGGCGSCWAFSGVAATESAYLAYRNQSLDLAEQELVDCASQHGCHGDTIPRGIEYIQHNGVVQESYYRYVAREQSCRRPNAQRFGISNYCQIYPPNVNKIREALAQTHSAIAVIIGIKDLDAFRHYDGRTIIQRDNGYQPNYHAVNIVGYSNAQGVDYWIVRNSWDTNWGDNGYGYFAANIDLMMIEEYPYVVIL
Turning to B1, in assay [1] (setting [5]), the “IFN-g in coculture supernatant” value is listed as “reduction of IFN-g” and the “IL-4 in coculture supernatant” value is “increase in IL-4”. Further, in assay [1] (setting [6]), the “IFN-γ production in coculture” value was 3.6 +/− 2.1 and the “IL-4 production in coculture” value is given as 13.6 +/− 7.3. In assay [1] (allergics, ±SEM), the “IFN-g concentration in coculture supernatant” value turned out to be 3.6 pg/mL and the “IL-4 concentration in coculture supernatant” value was 13.6 pg/m. Also, in assay [1] (healthy donors), the “IL-4 concentration in coculture supernatant” value is on record as “below the detection limit”. Moreover, in assay [1] (non-allergics (healthy donors), ±SEM), the “IFN-g concentration in coculture supernatant” value is on record as 8.7 pg/m. Moreover, in assay [2], the “Lymphocyte proliferation” value is reported as “only a very weak effect on lymphocyte proliferation”. The “TNF production in DC culture supernatant” value in assay [3] was “low levels”. Also, in assay [3] (compared to untreated DC), the “IL-10 production in DC culture supernatant” value was “did not influence” and the “IL-12p70 production in DC culture supernatant” value is “did not influence”. Further, in assay [4] (setting [7]), the “CD1a median fluorescence intensity” value is on record as 265.2 +/− 106.8, the “CD 14 median fluorescence intensity” value is on record as 17.6 +/− 9.8, the “CD 40 median fluorescence intensity” value is recorded as 733 +/− 160.5 and the “CD 80 median fluorescence intensity” value is given as 47.2 +/− 18.9. For the same molecule, in assay [4] (setting [7]), the “CD 83 median fluorescence intensity” value was 47.3 +/− 9^, the “CD 86 median fluorescence intensity” value is 159.8 +/− 29.3 and the “HLA-DR median fluorescence intensity” value was 426.9 +/− 131.9. Further, the “Surface expression of CD80, CD86, CD40, HLA-DR, CD83 on DC” value in assay [4] (immature DC of allergics, 48 h incubation) is reported as “no effect on the expression of the surface molecules”.

(Values after patent US8415152B2, “Therapeutical composition containing dentritic cells and use thereof” (Helmholtz-Zentrum für Infektionsforschung GmbH, priority 2003, dated 2013).)
